Consider one substance from paper doi:10.1101/2020.12.15.422910.

This assay has as its target OsBOR3_(Δ1-642) (Oryza sativa). Kind of assay: cryo-EM structure.

As usually defined, the stoichiometry N is a count of units in the complex or per binding partner. In turn, OsBOR3_(Δ1-642) (domain or fragment) registered a stoichiometry N of 2.
